According to the nanobody polyreactivity screen of Harvey et al. (2022):

Assay: yeast display, Sf9 membrane polyspecificity reagent, FACS + sequencing; frameworks hold sequencing errors
How it was run: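 In a synthetic yeast display library (Saccharomyces cerevisiae BJ5465), nanobody expression was induced with galactose for 36–48 hours. FACS gates were set low and high (top ~1%) using anti-HA fluorescence for expression and streptavidin fluorescence for binding of the Sf9 membrane reagent. Each polyreactivity label is drawn from the gate of origin.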

Row | Sequence | polyreactivity (PSR sort gate)
1 | QVQLVESGGGLVQAGGSLRLSCAASGAIFYYYAMGWYRQAPGKERELVATITASGGSTFYADSVKGRFTISRDNAKNTVYLQMNSLKPEDTAVYYCAATVYYTYWGQGTQVTVSS | low polyreactivity
2 | QVHLVESGGGLVQAGGSLRLSWAASGRNFTRYAMGWYSQAPGKERELVASIRHSGGSTYYADSVKGRFTISRDNAKKTVYLLINSLKPEDTADFYCAARGKKGTRYKYNYWGQRTQVTVSS | high polyreactivity
3 | QVQLVESGGGLVQAGGSLRLSCAASGITSGTYAMGRYRQAPGKERELVAGISRSGTRTYYADSVKGRFTISRDNAKNTVYLQMNSLKPEDTEVYYCNTYVGRRPGYGYWGQGTQVTVSS | high polyreactivity
4 | QVQLVESGGGLVQAGGSLRLSCAASGSTFSNAMGWYREAPGKERELVAAITNRGGSTYYADSVKGRFTISRDNAKNTVYLQMNSLKPEDTAVYYCAAAGIPESWYQERDYWGQGTQVTVSS | low polyreactivity
5 | QVQLVESGGGLVQAGGSLRLSCAASGSIFSPNAMGWYRQAPGKERELVAAISRGDSTYYADSVKGRFTISRDNAKNTVYLQMNSLKPEDTAVYYCAATYLRRPVSGAYRSEYNYWGQGTQVTVSS | high polyreactivity
6 | QVQLVESGGGLVQAGGSLRLSCAASGSTLDSNAMGWYRQATGKERELVAAIDWSGGSTYYADSVKGRFTISRDHAKNTVYLQMNSLKPEDTAVYYCAADDSSINYGDFDYWGQGTQVTVSS | low polyreactivity
7 | QVQLVESGGGLDQAGGSLRLSCAASGRISGYYDMVWYRQAPGKERELVATITSDGGTNYADSVKGRFTISRDNAKNTVYLQMNSLKPEDTAVYDCAAYGWYTKWHFAYGYWGQGTQVTVSS | low polyreactivity
8 | QVQLVESGGGLVQAGGSLRLSCAASGRIIQRNTMGWYRQAPGKERELVAAISGSTGRTYYADSVKGRFTISRDNAKNTVYLQMNSLKPEDTAVYYCNTVGRSSSLSVFLIGYGYWGQGTQVTVSS | high polyreactivity
9 | QVHLVESGGGLVHAGGSLRLSCAASGFTLAWNAMGWYRQAPGKETELVATISRYGSSTSYADSVKGRFTISRDNSKNTVYLQMNSLKPEDTAVYYCAADRYTFRMDYWGQGTQVTVSS | high polyreactivity
10 | QVQLVESGGGLVQAGGSLRLSCAASGRIFRRYAMGWYRQAPGKERELVAAISSRGGRTYYADSVKGRFTISRDNAKNTVYLQMNSLKPEETAVYYCNARSFRWCRWLRLPFNYWGQGTQVTVSS | high polyreactivity
11 | QVQLVESGGGLVQAGGSLRLSCAASGSTFLGNDMGWYRQEPGKERELVASINSATSTTYADSVKGRFTISRDNAKNTVYLQMNSLKPEDTAVYYCAARYYRPLDYWGQGTQVTVSS | low polyreactivity
12 | QVQLVESGGGLVQAGGSLRLSCAASGRTFWYYAMGWYRQAPGKEREFVAAISWSGGSTYYADSVKGRFTISRDNAKNTVYLQMNTLKPEDSAVYYCAASPVWWYDYWGQGTQVTVSS | low polyreactivity
13 | QVQLVESGGGLVQAGGSLRLSCAASGFIFGYYAMGWYRQAPGKERELVAAISKSGTDTYYADSVKGRFTISRDNAKNTVYLQMNSLKPEDTAVYYCNALLRGYSYGYDYWGQGTQVTVSS | high polyreactivity
14 | QVQLVESGGGLVQAGGRLRLSCAASGIIFYGYAMGWYRQAPGKERELVAAITSYDGSTYYADSVKGRFTISRDNEKNTVYLQMNILKPEDTAFYYCAADYSTYEGWYWFDYWGQGTQVTVSS | high polyreactivity
15 | QVQLVESGGCLVQAGGSLRYSCAASGRTFRYYGMGWYRQAPGKERELVAAISWSGGSTYYADSVKGRFTISRDNAKNTVYLQMNSLKPEDTAVYYCKVAFHWQRFHHKSAAYDYWGQGTQVTVSS | high polyreactivity
16 | QVQLVESGGGLVQAGGSLRLSCAASGFIFQKYAMGWYRQAPGKERELVAAIRYDGGSTYYADSVKGRFTISRDNAKNTVYLQMNSLKPDDTAVYYCAAYGPRLLIYPPYRYNYWGQGTQVTVSS | high polyreactivity
17 | QVQLVESGGGLVQAGGSLRLSCAASGIIFYSYAMGWYRQAPGKERELVAAISNNGGSTYADSVKGRFTISRDNAKNTVYLQMNSLKPEDTAVYYCAADPTGGVGFDGYYWGQGTQVTVSS | low polyreactivity
18 | QVQLVESGGGLVQAGGSLRLSCAASGYIFDFYDMGWYRQAPGKERELVAAITSGGSTNYADSVKGRFTISRDNAKNTVYLQMNSLKPEDTAVYYCAASFVGHIYWGARVPYYYNHDYWGQGTQVTVSS | high polyreactivity
19 | QVHLVESGGGLVQAGGSLRLSCSASGSIFRLNAMGWYRQAPGKERELVAAITWSDSSTYYADSVKGRFTISRDNAKNTVYLQMNSLKPVDTAVYYCAADPQSYKYDYWGQGTQVTVSS | low polyreactivity
20 | QVQLGESGGGLVQAGGSLRLSCAASGSTFNENAMGWYRQAPGKERELVAAISNDGSTTYADSVKGRFTISRDNAKNTVYLQMNSLKPEDTALYYCNAVSYIDTQSSLGDSWGQGTQVTVSS | low polyreactivity
21 | QVQLVESGGGLVQAGGSLRLSCAASGSIFWSNAMGWYRQAPGKEREFVAAITWSGDNTYYADSVKGRFTISRDNAKNTVYLQMNSLKPEDTAVYYCAASGDYYWDEGDYWGQGTQVTVSS | low polyreactivity
22 | QVQLVESGGDLVQAGGSLRLSCAASGITFVYNAMGWYRQAPGKESELVAGITWSGSSTYYADSVKGRFTISRDNAKNTVYFQMNSLKPEDTAVYYCAAYLYERTTRYRVYLQWKHGYWGQGTQVTVSS | high polyreactivity

Row | Sequence | polyreactivity (PSR sort gate)
23 | QVQLVESGGGLVQAGGSLRLSCAASGIIIYDYAMGWYRHAPGKERELVAAISRSGGSTYYADSVKGRFTISRDNAKYTVYLQMNSLKPDDTAVYYCNADEVVWGYNYWGQGTQVTVSS | low polyreactivity
24 | QVQLVESGGGLVQAGGSLRLSCAASGFIFTSYAMGWYRQAPGKERELVAAITRSGGRTYYADSVKGRFTISRDNAKNTVYLQMNSLKPEDTAVYYCAAVTFYQSPARGYWGQGTQVTVSS | high polyreactivity
25 | QVQLVESGGGLFQAGGSLRLSCAASGTFVTYMGWYRQEPGQERELVAAIRNGGSTNYADSVKGRFTISRDNAKNTVYLQMNSLKPEDTAVYYCAARVTYSRGYRGGSRTKYDYWGQGTQVTVSS | low polyreactivity
26 | QVQLVESGGGLVQAGGSLRLSCAAAGRIFGINALGWYRQAPGKERELVAAISWRSGSTYYADSVKGRFTISRDNAKNTVYLQMNSLKPEATAVYYCAARYFVRNYYQNDYWGQGTQVTVSS | low polyreactivity
27 | QVQLVESGGGLVQAGGSLRLSCAASGFNFIDYAMGWYRQAPGKERELVAAITSSGGRTYYADSVKGRFTISRDNAKITVYLQMTSLKPEDTAVYYCAARLPGYVRIYDYWGQGTQVTVSS | high polyreactivity
28 | QDQLVESGGGLVQAGGSLRLSCAASGLTFQSYAMGWYRQAPGKERELVATISNGSSTYYADSVKGRFTISRDNAKNTVYLQMNSLKPEDTAVYYFAKDYYYSRNPLYGLDYWGQGTQVTVSS | low polyreactivity
29 | QVQLVESGGGLVQAGGSLRLSCAASGRIFLSYAMGWYRQAPGKERELVAAITDNGGDTYYADSVKGRFTISRDNAKNTVYLQMNILKPEDTAVYYCAVDGGEFSSYGYWGQGTQVTVSS | low polyreactivity
30 | QVQLVESGGGLVQAGGSLRLSCAASGSTFTPYAMGWYRPAPGKERELVATISSRGGSTSYADSVKGRFTISRDNAKNTVYLQMNSLKPEDTAVYYCARKVRRVARIMYYWGQGTQVTVSS | high polyreactivity
31 | QVQLVESGGGLVQAGGSLRLSCAASGRIFRINAMGWYRQAPGKERELVASISRRGGNTYYADSVKGRFTISRDNAKNTVYLQMNSLKPEDTAVYYCAADTNQERTFYYWGQGTQVTVSS | low polyreactivity
32 | QVQLVESGGGLVQAGGSLRLSCAASGNIFRNNAMGWYRQAPGKERELVAAISRGGSTYYADSVKGRFTISRDNAKNTVYLQMNSLKPEDTAVYYCNKYSSRAYNYWGQGTQVTVSS | high polyreactivity
33 | QVQLVESGGGLVQAGGSLPLSCAASGYTFDANAMGWYRQAPGKERELVASISSISDSTDYADSVKGRFTISRDNAKNTVYLQMNSLKPEDTAVYYCARSDVKPGRQERDYWGQGTQVTVSS | low polyreactivity
34 | QVQIVESGGGLVQAGGSHRLSCAASGSTFDAYAMGWYRQEPGKEREMVAAISTRGGRTYYADSVKGRFTISRDNAKNTVYLQMNSLKPEDTAVYYCNAVVARVNVRGTPAFDYWGQGTQVTVSS | high polyreactivity
35 | QVQLVESGGGLVQAGGSLRLSCAASGSTFPLYAMGLYRQAPGKERELVAAITGGGGRTYYADSVKGRFTISRDIAKNTVYLQMNSLKPEYTAVYYCNAVVYLTNYWYDYWAQGTQVTVSS | low polyreactivity
36 | QVQLVESGGGLVQAGRSLRLSCAASGRTFGGNAMGWYRQAPGKERELVAAIDQSGGSTYYADSVKGRFTISRDNAKNTVYLQMNSLKPEDTAVYYCATHDGGTYYVREPNVKYDYWGQVTQVTVSS | low polyreactivity
37 | QVQLVESGGGLVQAGGSLRLSCAASGRTFAFYTMGWYRQAPGKEREFVAASSWSGGSTHYADSVKGRFTISRDNEKNTVYLQMNSLTQEYTAVYYCAAGPFYRFTDGRDKTLDYWGQGNQVTVSS | high polyreactivity
38 | QDQLVESGGGLVQAGGSLRLSCAASGIIFSIYAMGWYRQAPGKERELVAVISRSSGSTYYADSVKGRFTISRDNAKNSVYLQMNSLKPEDTAVYYCAARKNRAYGYWGQGTQVTVSS | high polyreactivity
39 | QVQLVESGGGLVQAGGSLRLSCAASGSTFDSYAMGWYRQAPGKERELVAAISTSGGSTYYADSVKGRFTISRDNAKNTVYLQMNSLKPEDTAVYYCAAYSISSRMNYWGQGSQVTVSS | high polyreactivity
40 | QVQLVESGGGLVQAGGSLRLSCAASGRTFYLNAMGWYRQAPGKEREFVARITWSGGSTYYADSVKGRFTISRDNAKNTVYLQMNSLKPEDTAVYYCIRLSSYHMDYWGQGTQVTVSS | high polyreactivity
41 | QVQLVESGGGLVQAGGSLRLSCAASGSTFGYNAMGWYRPAPGKERELVAAISWNGGSTYYADSVKGRFTISRDNAKTTVYLQMNSLKPEDTAVYYCAAEHRGYFTRYDYWGQGTQVTVSS | low polyreactivity
42 | QVQLVDTGAGLVQAGGSLRISCAPSGNIFVDNVMGWYRQAPGKERELVAAIDYSGGSTYYADSVKGRFTISRDNAKNNVYLQMNSLKPEDTAVYYCNARTYYGFGMDFWGQGTQVTVSS | low polyreactivity
43 | QVQLVESGGGLVQAGGSLRLSCAASGRIFKPYAMGWYRQAPGKERELVASISRRGGSTYYADSVKGRFTISRDNAKNTVYLQMNSLKPEDTAVYYCNASGTYISLGYDYWGQGTQVTVSS | high polyreactivity
